The values below come from publication PMC4370478, “Inhibition of Zn(II) Binding Type IA Topoisomerases by Organomercury Compounds and Hg(II)”.

In the data set the target is E. coli topoisomerase I (ETOP) (Escherichia coli, UniProt P06612 1-865). In words: fluorescence anisotropy; 0.5 mM MgCl2; no inhibitor (Kd fitted, value not in the text held); 50 mM Tris-HCl pH 7.5, 100 mM NaCl, 0.1 mM EDTA, 0.5 mM MgCl2; 10-30 nM oligonucleotide; temperature not stated. Conditions: label: 3' 6-carboxyfluorescein; hairpin, 16 bp stem.
Chain of E. coli topoisomerase I (ETOP) (P06612 whole entry): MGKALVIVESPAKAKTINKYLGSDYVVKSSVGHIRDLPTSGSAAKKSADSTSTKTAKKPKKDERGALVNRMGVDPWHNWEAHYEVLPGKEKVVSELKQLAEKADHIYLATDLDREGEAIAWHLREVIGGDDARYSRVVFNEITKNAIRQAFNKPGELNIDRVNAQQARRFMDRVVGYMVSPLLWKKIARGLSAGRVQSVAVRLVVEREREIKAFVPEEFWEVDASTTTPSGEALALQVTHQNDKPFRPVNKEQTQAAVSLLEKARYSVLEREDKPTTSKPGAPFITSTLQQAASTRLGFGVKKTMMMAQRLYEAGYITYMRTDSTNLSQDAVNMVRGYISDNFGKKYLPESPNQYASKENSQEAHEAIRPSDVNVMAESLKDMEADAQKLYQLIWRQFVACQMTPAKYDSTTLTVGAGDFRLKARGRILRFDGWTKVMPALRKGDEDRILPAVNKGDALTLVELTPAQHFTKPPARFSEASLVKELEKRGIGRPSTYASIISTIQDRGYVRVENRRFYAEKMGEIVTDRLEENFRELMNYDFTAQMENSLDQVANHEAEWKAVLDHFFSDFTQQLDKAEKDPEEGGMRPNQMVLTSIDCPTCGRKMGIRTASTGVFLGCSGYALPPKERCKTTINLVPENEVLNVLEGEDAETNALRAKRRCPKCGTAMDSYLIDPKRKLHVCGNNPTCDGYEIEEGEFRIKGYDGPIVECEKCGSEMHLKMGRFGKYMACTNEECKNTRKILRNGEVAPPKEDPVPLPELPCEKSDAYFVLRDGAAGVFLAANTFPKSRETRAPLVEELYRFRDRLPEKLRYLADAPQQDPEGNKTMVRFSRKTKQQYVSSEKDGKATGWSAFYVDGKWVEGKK

B1: 59-base stem-loop oligonucleotide (non-cleavable) (structured_DNA)
DNA: GCCCTGAAAGATTATGGAATGGGATTAGGGTAAAGGAAGAGAGCATAATCTTTCAGGGC
On to B1, for which the binding result is on record as “binds”.
